Test results published in article PMC13216289 (NPJ Vaccines, 2026).

What was measured:
Assay in all cases: BLI
Conditions in all cases: both partners purified
[1] = biological target: T1, FMDV O1/Manisa/TUR/69 virus-like particle, VP2 93C stabilised (Foot-and-mouth disease virus …, UniProt Q6PMW3, stabilised)
T1 construct: copies: 60 + 60 + 60 + 60

[2] = biological target: T2, FMDV A22/IRQ/24/64 virus-like particle, VP2 93C stabilised (FMDV serotype A, A22/IRQ/24/64, stabilised)
T2 construct: copies: 60 + 60 + 60 + 60

[3] = biological target: T1, FMDV O1/Manisa/TUR/69 virus-like …; remark: listed apart in the source
[4] = biological target: T2, FMDV A22/IRQ/24/64 virus-like particle, …; remark: listed apart in the source

| Binder | Kd [1] | koff [1] | kon [1] | Kd [2] | koff [2] | kon [2] | Kd [3] | koff [3] | kon [3] | Kd [4] | koff [4] | kon [4] |
| --- | --- | --- | --- | --- | --- | --- | --- | --- | --- | --- | --- | --- |
| Ab17, recombinant cattle IgG1/lambda antibody (antibody, V domains shown, copies: 2 + 2) VH: QVQLRESGPSSLKPSQTLSLTCAVSGFSLSTYAVGWVRQAPGKALEWVGDITSSGDTFYNPALKSRFSITKDNSKNQVSLSVGSVTPEDTATFYCTRLTCGDDCSTAWHNFDAWGQGLLVTVSS VL: SYELTQPTSVSVALGQTAKITCSGDLLDVQYTQWYQQKPGQGPVRVIYKDSERPSGISDRFSGSSSGKTATLIISGAQTEDEADYYCQSTDSSQYGIFGRGTTLTVL | 0.021 nM | 7.96e-06 s⁻¹ | 303000 M⁻¹ s⁻¹ | 0.246 nM | 0.000164 s⁻¹ | 685000 M⁻¹ s⁻¹ |  |  |  |  |  |  |
| Ab49, recombinant cattle IgG1/lambda antibody (antibody, V domains shown, copies: 2 + 2) VH: QVQLRESGPSLVKPSQTLSLTCTVSGFSLTNYAVGWVRQAPGKAIQSLSIISTTGDTYYNPALKSRLSITKDNSKSQVSLSVSSVAPEDTATYYCVKFCGNADSAGHGWGCDYGDNENWGQGLLVTVSS VL: SYELTQPTSVSVALGQTAKITCSGDLLDEQYTQWYQQKPGQGPVRVIYKDSERPSGISDRFSGSSSGKTATLTISGAQTEDEADYYCQSFYSSTDPVFGSGTTLTVL | 0.156 nM | 4.9e-05 s⁻¹ | 257000 M⁻¹ s⁻¹ | 0.114 nM | 3.61e-05 s⁻¹ | 389000 M⁻¹ s⁻¹ |  |  |  |  |  |  |
| Fab49, recombinant cattle Fab of Ab49 (Fab, V domains shown) VH: QVQLRESGPSLVKPSQTLSLTCTVSGFSLTNYAVGWVRQAPGKAIQSLSIISTTGDTYYNPALKSRLSITKDNSKSQVSLSVSSVAPEDTATYYCVKFCGNADSAGHGWGCDYGDNENWGQGLLVTVSS VL: SYELTQPTSVSVALGQTAKITCSGDLLDEQYTQWYQQKPGQGPVRVIYKDSERPSGISDRFSGSSSGKTATLTISGAQTEDEADYYCQSFYSSTDPVFGSGTTLTVL |  |  |  |  |  |  | 6.37 nM | 0.0029 s⁻¹ | 553000 M⁻¹ s⁻¹ | 4.44 nM | 0.00349 s⁻¹ | 749000 M⁻¹ s⁻¹ |
| Fab17, recombinant cattle Fab of Ab17 (Fab, V domains shown) VH: QVQLRESGPSSLKPSQTLSLTCAVSGFSLSTYAVGWVRQAPGKALEWVGDITSSGDTFYNPALKSRFSITKDNSKNQVSLSVGSVTPEDTATFYCTRLTCGDDCSTAWHNFDAWGQGLLVTVSS VL: SYELTQPTSVSVALGQTAKITCSGDLLDVQYTQWYQQKPGQGPVRVIYKDSERPSGISDRFSGSSSGKTATLIISGAQTEDEADYYCQSTDSSQYGIFGRGTTLTVL |  |  |  |  |  |  | 5.93 nM | 0.0117 s⁻¹ | 1.19e+06 M⁻¹ s⁻¹ | 19.6 nM | 0.0298 s⁻¹ | 1.52e+06 M⁻¹ s⁻¹ |
| Ab34, recombinant cattle IgG1/lambda antibody (antibody, V domains shown, copies: 2 + 2) VH: QVQLRESGPSLVKPSQTLSLTCTVSGFSLTDVHVGWVRQTPGKALEWVGVICNRGAIGYNPALESRLSITEDNSKSQVSLSLSSVTTADTATYYCASSCRTEGDVGGDCDSDHFFCAWGQGLLVTVSS VL: SYELTQPTSVSVALGQTAKITCSGDLLDRQYAQWYQQKPGQGPVRVIYKDSERPSGISDRFSGSSSGKTATLTVSGAQTEDEADYYCHSADSSHYPVFGSGSTLTVL | 0.00904 nM |  |  | 0.0093 nM |  |  |  |  |  |  |  |  |
| Fab34, recombinant cattle Fab of Ab34 (Fab, V domains shown) VH: QVQLRESGPSLVKPSQTLSLTCTVSGFSLTDVHVGWVRQTPGKALEWVGVICNRGAIGYNPALESRLSITEDNSKSQVSLSLSSVTTADTATYYCASSCRTEGDVGGDCDSDHFFCAWGQGLLVTVSS VL: SYELTQPTSVSVALGQTAKITCSGDLLDRQYAQWYQQKPGQGPVRVIYKDSERPSGISDRFSGSSSGKTATLTVSGAQTEDEADYYCHSADSSHYPVFGSGSTLTVL |  |  |  |  |  |  | 12.3 nM |  |  | 9.9 nM |  |  |
